Assay results published in patent US20230312724A1 (KADMON, published 2023).

What was measured:
[1] = target: T1, IgC domain of human B7-H4-Fc (human); assay: ELISA, coated hB7-H4 IgC domain
T1 construct: also called hB7-H4 IgC domain
Protocol: (§1) ELISA experiments were performed to determine binding to hB7-H4-Fc (FIG. 5A), hB7-H4-his (FIG. 5B), mB7-H4-Fc domain (FIG. 5C), hB7-H4 IgV domain (FIG. 5D), and hB7-H4 IgC domain (FIG. 5E). Flow cytrometry experiments were performed to determine binding to CHO cells expressing hB7-H4 (FIG. 5F) or mB7-H4 (FIG. 5G). […] A cross-reactive IgV binding antibody and an IgC binding antibody were used as controls.
(§2) About 1-2 μg/ml of human or mouse B7-H4-Fc (or his-tagged) was immobilized on ELISA plates (Immuno 2HB, Thermo scientific, cat #3455) at 4° C. overnight. After blocking the plates with 3% PBS+milk, serial diluted antibodies were added to the blocked plates and incubated at RT for 1-1.5 h. After washing the plates with PBS-T (0.05%), horse radish peroxidase (HRP)-conjugated antibody targeting the hFab was added to the plate. Signals were developed by adding 3,3′,5,5′-Tetramethylbenzidine (TMB (followed 1N of H₂SO₄ to stop the reaction. The OD at 450 nm was read by ELISA plate reader (Infinite M1000 from TECAN). GraphPad from Prism was used to plot OD450 vs. antibody concentration curve and to calculate the EC50 values.

[2] = target: T2, human B7-H4-Fc (human); assay: ELISA, coated hB7-H4-Fc
T2 construct: also called hB7-H4-Fc; hB7-H4 Fc
Protocol: as §1, §2

[3] = target: T3, IgV domain of human B7-H4-Fc (human); assay: ELISA, coated hB7-H4 IgV domain
T3 construct: also called hB7-H4 IgV domain
Protocol: as §1, §2

[4] = target: T4, mB7-H4 (soluble mouse B7-H4, construct not named) (mouse, UniProt Q7TSP5 25-257, limits assumed); assay: summary of ELISA and flow cytometry
T4 sequence: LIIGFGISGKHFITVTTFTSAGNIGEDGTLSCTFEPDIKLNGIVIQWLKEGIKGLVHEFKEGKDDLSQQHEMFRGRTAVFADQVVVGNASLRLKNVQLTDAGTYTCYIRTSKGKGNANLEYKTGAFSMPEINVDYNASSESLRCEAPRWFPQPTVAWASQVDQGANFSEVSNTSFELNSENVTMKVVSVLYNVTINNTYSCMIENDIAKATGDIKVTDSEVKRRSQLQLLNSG

[5] = target: T5, human B7-H4-his (human, UniProt Q7Z7D3 25-259); assay: ELISA, coated hB7-H4-his
T5 construct: also called hB7-H4-his; hB7-H4 his; not shown: his tag
T5 sequence: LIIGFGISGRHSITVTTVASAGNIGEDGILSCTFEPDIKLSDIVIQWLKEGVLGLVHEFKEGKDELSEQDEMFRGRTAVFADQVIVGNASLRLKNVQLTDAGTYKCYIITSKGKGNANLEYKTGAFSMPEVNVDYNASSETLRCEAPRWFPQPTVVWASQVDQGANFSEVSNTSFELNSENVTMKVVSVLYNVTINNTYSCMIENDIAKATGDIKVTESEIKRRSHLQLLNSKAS
Protocol: as §2

[6] = target: T6, mouse B7-H4 expressed on cells (mouse, UniProt Q7TSP5 25-257); assay: flow cytometry, CHO cells expressing mB7-H4
T6 construct: also called cellular mB7-H4; mB7-H4/CT26
T6 sequence: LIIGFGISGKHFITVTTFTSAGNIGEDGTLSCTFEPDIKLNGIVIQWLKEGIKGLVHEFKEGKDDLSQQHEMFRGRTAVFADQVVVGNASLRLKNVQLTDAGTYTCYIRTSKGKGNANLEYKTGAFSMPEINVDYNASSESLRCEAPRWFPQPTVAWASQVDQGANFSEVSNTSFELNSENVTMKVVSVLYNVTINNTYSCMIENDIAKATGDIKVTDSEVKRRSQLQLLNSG
Protocol: as §1
Cells were harvested, washed once, and then re-suspended to the concentration of 1×10⁶ cells/ml in ice cold FACS Buffer. 25 μl of cell suspension was added to each well of a 96-well round-bottom microliter plate. Serially diluted antibodies or fusion proteins were added to each well and incubated for 1 hour at 4° C. Cells were washed three times by centrifugation at 1500 rpm for 5 minutes, and then stained with secondary antibody (1:200 dilution) for 30 min at 4° C. in the dark. Cells were washed once, re-suspended in 100 μl PBS buffer and then analyzed using Guava Flow Cytometry EasyCyte system.

[7] = target: T7, mouse B7-H4-Fc (mouse; human); assay: ELISA, coated mB7-H4-Fc
T7 construct: also called mB7-H4-Fc; mB7-H4-hFc
Protocol: as §1, §2

T2 sequence (chain, as listed by the source): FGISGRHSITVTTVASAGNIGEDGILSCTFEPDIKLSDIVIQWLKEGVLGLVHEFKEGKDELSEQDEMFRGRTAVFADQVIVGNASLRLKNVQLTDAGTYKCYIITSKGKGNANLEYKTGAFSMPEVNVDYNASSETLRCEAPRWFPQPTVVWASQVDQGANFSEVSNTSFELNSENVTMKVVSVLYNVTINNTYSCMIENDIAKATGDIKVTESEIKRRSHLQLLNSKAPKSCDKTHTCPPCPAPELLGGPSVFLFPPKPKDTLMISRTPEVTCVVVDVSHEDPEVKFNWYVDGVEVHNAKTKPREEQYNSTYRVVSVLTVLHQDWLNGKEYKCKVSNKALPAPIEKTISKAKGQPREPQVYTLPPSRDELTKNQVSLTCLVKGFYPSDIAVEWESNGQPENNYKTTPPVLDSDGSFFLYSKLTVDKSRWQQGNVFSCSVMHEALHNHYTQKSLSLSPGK
T3 sequence (chain, as listed by the source): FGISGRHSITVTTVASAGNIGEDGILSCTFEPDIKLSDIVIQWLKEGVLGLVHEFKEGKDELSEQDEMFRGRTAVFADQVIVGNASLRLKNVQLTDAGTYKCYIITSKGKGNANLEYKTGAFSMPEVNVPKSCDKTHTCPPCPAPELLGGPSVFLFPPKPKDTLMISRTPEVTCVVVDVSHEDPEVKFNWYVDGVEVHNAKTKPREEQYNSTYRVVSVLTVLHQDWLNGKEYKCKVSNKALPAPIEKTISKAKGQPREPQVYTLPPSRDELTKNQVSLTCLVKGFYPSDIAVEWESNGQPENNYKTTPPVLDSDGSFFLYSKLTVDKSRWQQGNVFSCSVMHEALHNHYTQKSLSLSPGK
T7 sequence (chain, as listed by the source): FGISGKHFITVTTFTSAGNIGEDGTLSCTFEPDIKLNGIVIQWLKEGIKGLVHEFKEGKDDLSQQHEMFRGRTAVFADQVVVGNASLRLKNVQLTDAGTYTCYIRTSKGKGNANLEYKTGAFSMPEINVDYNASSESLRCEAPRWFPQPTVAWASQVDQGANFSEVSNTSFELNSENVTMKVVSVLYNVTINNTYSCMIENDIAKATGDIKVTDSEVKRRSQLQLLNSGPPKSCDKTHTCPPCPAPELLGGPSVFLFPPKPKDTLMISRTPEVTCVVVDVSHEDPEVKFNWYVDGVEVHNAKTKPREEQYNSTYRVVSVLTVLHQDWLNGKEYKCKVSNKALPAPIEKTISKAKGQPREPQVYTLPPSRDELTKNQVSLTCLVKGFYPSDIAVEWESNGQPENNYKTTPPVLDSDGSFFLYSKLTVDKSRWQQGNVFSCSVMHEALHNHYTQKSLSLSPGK
T1 sequence (chain, as listed by the source): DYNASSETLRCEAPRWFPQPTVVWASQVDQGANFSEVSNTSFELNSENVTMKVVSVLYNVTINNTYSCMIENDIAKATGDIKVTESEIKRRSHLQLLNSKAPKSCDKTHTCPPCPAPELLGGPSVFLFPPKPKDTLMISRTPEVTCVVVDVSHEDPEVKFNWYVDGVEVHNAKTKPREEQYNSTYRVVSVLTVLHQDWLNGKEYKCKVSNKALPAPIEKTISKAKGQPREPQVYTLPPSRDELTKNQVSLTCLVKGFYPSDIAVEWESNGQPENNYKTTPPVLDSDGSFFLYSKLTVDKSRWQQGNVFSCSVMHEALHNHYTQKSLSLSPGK

B1: 9H2/9H2 (antibody, V domains shown)
VH: QVQLVQSGAEVKKPGSSVKVSCKASGGTFSTYAINWVRQAPGQGLEWMGGINPMFGTARYAQKFQGRVTITADESTSTAYMELSSLRSEDTAVYYCARGRLHRHWGQGTLVTVSS
VL: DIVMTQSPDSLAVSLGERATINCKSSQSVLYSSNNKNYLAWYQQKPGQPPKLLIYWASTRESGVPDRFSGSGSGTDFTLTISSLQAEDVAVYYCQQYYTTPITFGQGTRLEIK
With B1 the binding result [1] was “no binding (tested: log 0.3 ug/ml (about 2 ug/ml))”, the “EC50 (read off the curve)” value [2] was about 0.07 nM and the “EC50 (read off the curve)” value [3] was about 0.07 nM. For the same binder, the binding result [4] was “no binding”, the “EC50 (read off the curve)” value [5] was about 0.06 nM and the binding result [6] was “no binding (tested: log 2.3 nM (about 200 nM))”. B1: no binding (tested: log 1 nM (10 nM)) [7].
